According to patent publication US20090083877A1, “Transcription Factors, DNA and Methods for Introduction of Value-Added Seed Traits and Stress Tolerance” (priority 2002, published 2009):
Entries after “also recorded” stand apart in the source; their conditions may differ. Read-outs that look alike come from different tables or passages of the source.

B1: RAV2: Arabidopsis ABI3-Like B3 domain transcription factor, At1g68840, SEQ ID NO 3 and 4 (protein, listed as Arabidopsis thaliana)
chain: MDSSCIDEISSSTSESFSATTAKKLSPPPAAALRLYRMGSGGSSVVLDPENGLETESRKLPSSKYKGVVPQPNGRWGAQIYEKHQRVWLGTFNEQEEAARSYDIAACRFRGRDAVVNFKNVLEDGDLAFLEAHSKAEIVDMLRKHTYADELEQNNKRQLFLSVDANGKRNGSSTTQNDKVLKTREVLFEKAVTPSDVGKLNRLVIPKQHAEKHFPLPSPSPAVTKGVLINFEDVNGKVWRFRYSYWNSSQSYVLTKGWSRFVKEKNLRAGDVVTFERSTGLERQLYIDWKVRSGPRENPVQVVVRLFGVDIFNVTTVKPNDVVAVCGGKRSRDVDDMFALRCSKKQAIINAL
B2: AREB3: Arabidopsis ABI5-like bZIP transcription factor, At3g56850 (protein, listed as Arabidopsis thaliana)
chain: MDSQRGIVEQAKSQSLNRQSSLYSLTLDEVQNHLGSSGKALGSMNLDELLKSVCSVEANQPSSMAVNGGAAAQEGLSRQGSLTLPRDLSKKTVDEVWKDIQQNKNGGSAHERRDKQPTLGEMTLEDLLLKAGVVTETIPGSNHDGPVGGGSAGSGAGLGQNITQVGPWIQYHQLPSMPQPQAFMPYPVSDMQAMVSQSSLMGGLSDTQTPGRKRVASGEVVEKTVERRQKRMIKNRESAARSRARKQAYTHELEIKVSRLEEENERLRKQKEVEKILPSVPPPDPKRQLRRTSSAPF
B3: VP1: maize VIVIPAROUS-1 B3-domain transcription factor, SEQ ID NO 1 and 2, expressed from 35S promoter (protein)
chain: MEASSGSSPPHSQENPPEHGGDMGGAPAEEIGGEAADDFMFAEDTFPSLPDFPCLSSPSSSTFSSNSSSNSSSAYTNTAGRAGGEPSEPASAGEGFDALDDIDQLLDFASLSMPWDSEPFPGVSMMLENAMSAPPQPVGDGMSEEKAVPEGTTGGEEACMDASEGEELPRFFMEWLTSNRENISAEDLRGIRLRRSTIEAAAARLGGGRQGTMQLLKLILTWVQNHHLQRKRPRDVMEEEAGLHVQLPSPVANPPGYEFPAGGQDMAAGGGTSWMPHQQAFTPPAAYGGDAVYPSAAGQQYSFHQGPSTSSVVVNSQPFSPPPVGDMHGANMAWPQQYVPFPPPGASTGSYPMPQPFSPGFGGQYAGAGAGHLSVAPQRMAGVEASATKEARKKRMARQRRLSCLQQQRSQQLSLGQIQTSVHLQEPSPRSTHSGPVTPSAGGWGFWSPSSQQQVQNPLSKSNSSRAPPSSLEAAAAAPQTKPAPAGARQDDIHHRLAAASDKRQGAKADKNLRFLLQKVLKQSDVGSLGRIVLPKKEAEVHLPELKTRDGISIPMEDIGTSRVWNMRYRFWPNNKSRMYLLENTGEFVRSNELQEGDFIVIYSDVKSGKYLIRGVKVRPPPAQEQGSGSSGGGKHRPLCPAGPERAAAAGAPEDAVVDGVSGACKGRSPEGVRRVRQQGAGAMSQMAVSI
modifications: Zea mays
B4: DPBF4/EEL: Arabidopsis ABI5-like bZIP transcription factor, Enhanced Em Level, At2g41070 (protein, listed as Arabidopsis thaliana)
chain: MGSIRGNIEEPISQSLTRQNSLYSLKLHEVQTHLGSSGKPLGSMNLDELLKTVLPPAEEGLVRQGSLTLPRDLSKKTVDEVWRDIQQDKNGNGTSTTTTHKQPTLGEITLEDLLLRAGVVTETVVPQENVVNIASNGQWVEYHHQPQQQQGFMTYPVCEMQDMVMMGGLSDTPQAPGRKRVAGEIVEKTVERRQKRMIKNRESAARSRARKQAYTHELEIKVSRLEEENEKLRRLKEVEKILPSEPPPDPKWKLRRTNSASL

What was measured:
[1] = test system: ABA-inducible wheat Em promoter; experiment: Em-GUS reporter transactivation in transiently transformed rice protoplasts; type: cell-based, Oryza sativa; conditions: for Synergy with exogenous ABA on Em-GUS expression: 100 μM ABA, 16 h; for Transactivation of Em-GUS expression by overexpressed effector: effector overexpressed alone, average of four replicate transformations
Experimental: Embryonic rice (Oryza sativa) callus cultures (Radon 6 from the International Rice Research Institute, Los Bafios, Phillipines) were obtained. Embryonic rice callus cultures were grown as suspensions in liquid culture as well as on phytagel plates containing MS medium supplemented with 2.0 mg/L 2,4-D. Cultures were propagated and digested for making protoplasts as previously described except that 10 mM HEPES (Sigma, St. Louis, Mo., USA), pH 5.6, was substituted for phosphate in the Krens'F medium, and 2% (weight/volume; w/v) cellulase YC, 0.35% (w/v) macerozyme, and 0.1% (w/v) pectolyase Y23 were used for overnight digestion (Karlan Research Products, Santa Rosa, CA, USA). Protoplasts were transformed with various mixtures of DNA reporter and effector constructs using polyethylene glycol precipitation. Transformed protoplasts were incubated with or without 100 μM ABA for 16 h in the dark in Krens solution before quantifying β-glucuronidase (GUS) and luciferase (LUC) reporter enzyme activities as previously described. ABA was dissolved and stored in absolute ethanol at −20° C. as a 0.1 M stock solution. Prior to use, required dilutions of ABA were made in Krens solution, and control samples received the same volume of solvent as in ABA treatments.
(§1) Plasmid pBM207 contains the wheat (Triticum aestivum) Early Methionine-labeled (Em) promoter driving the expression of GUS, encoded by uida from Escherichia coli. Plasmid pDH359 contains ABI5 cDNA driven by Ubiquitin promoter. Plasmid pCR349.13S contains the 35S promoter driving the VP1 sense cDNA. Plasmid pDirect2.6 contains the Ubi promoter in a reverse orientation and was used as control construct to balance the total amount of input plasmid DNA between various treatments. Plasmid pAHC 18 contains the Ubi promoter driving firefly (Photinus pyralis) LUC cDNA and was included in transformations to provide an internal reference for non-ABA-inducible transient transcription in reporter enzyme assays. ABF1-ABF4, AREB3, and DPBF4 were amplified by PCR using gene-specific primers from an Arabidopsis cDNA library (Minet et al. Plant J. 2:417 (1992)) and were cloned into plasmid pDH349 (Gampala et al. J. Biol. Chem. 277: 1689 (2002)) containing the maize Ubiquitin promoter and nopaline synthase 3′ termination signals.
Simultaneously, it has been shown that ABF2, ABF3 and ABF4 overexpression in transgenic Arabidopsis results in ABA hypersensitivity and other ABA-associated phenotypes such as altered ABA-inducible gene expression and glucose signaling, reduced transpiration, and enhanced drought tolerance. The functional roles of the ABI5-like family members ABF1-ABF4 in regulation of ABA-inducible gene expression in rice protoplasts were tested and the results are shown in FIG. 1. […] Protoplasts were transformed with Em-GUS and a “dummy” effector construct (pD2.6 containing only the Ubiquitin promoter used to drive effector expression) or co-transformed with a Ubi-ABF construct and treated with or without 100 μM ABA. The values shown in FIG. 1A are the average (±S.E.M.) of four replicate transformations.
Rice protoplasts were transformed with either Em-GUS alone or in pairwise combinations of Ubi-ABF3, Ubi-ABI5, or 35S-VP1. The values in FIG. 1B are the average (±S.E.M.) of four replicate transformations. ABF3 is a related member of the ABI5-family of bZIP transcription factors.

[2] = test system: ABA-inducible wheat Em promoter; experiment: Em-GUS reporter transactivation in transiently transformed maize mesophyll protoplasts; type: cell-based; conditions: for Transactivation of Em-GUS expression by overexpressed effector: effector overexpressed alone
Experimental: Plant Materials. Maize mesophyll protoplasts were isolated from 20-hr illuminated leaves of 10 day old maize seedlings that had been kept in the dark at 25° C. The middle part of the second leaves (about 6 cm in length) was cut into 0.5 mm strips with a razor blade and digested in an enzyme solution containing 1% (w/v) cellulose RS, 0.1% (w/v) macerozyme R10 (Yakult Honsha, Nishinomiya, Japan), 0.6 M mannitol, 10 mM MES (pH 5.7), 1 mM CaCl2, 1 mM MgCl2, 10 mM β-mercaptoethanol, and 0.1% BSA (w/v) for 3 hr at room temperature. Protoplasts were released by shaking on a rotary shaker at 80 rpm for 10 min and were filtered through a 70 μm nylon filter. Protoplasts were collected by centrifugation at 100 g for 2 min, washed in cold 0.6 M mannitol solution, centrifuged, and resuspended at 2×10^6/mL in cold 0.6 M mannitol. Electroporation conditions were 400 V/cm, 200 μF, 10 msec, and two pulses with a Biorad GenePulser apparatus. Each sample contained 5×10^4 protoplasts and about 50 μg DNA in 0.3 mL of 0.6 M mannitol and 20 mM KCl.
as §1
The values in FIG. 2 are the average (±S.E.M.) of four replicate transformations.
To test the involvement of ABI3-Like B3 domain transcription factors in ABA signaling, ABA-inducible reporter gene transactivation by the B3 domain-containing RAV2 was assayed in maize mesophyll protoplasts transiently co-transformed with a full length cDNA under transcriptional control of the Ubiquitin promoter. Activation of Em-GUS reporter gene expression by RAV2, relative to non-ABA inducible Ubi-LUC reference reporter as internal control, and functional interactions of RAV2 with VP1, ABI5, and the ABI5-Like ABF3 were compared in protoplasts treated with or without 100 uM ABA (see FIG. 3).

| Molecule | Synergy with exogenous ABA on Em-GUS expression [1] | Transactivation of Em-GUS expression by overexpressed effector [1] | Synergy with co-transformed VP1 on Em-GUS expression [2] | Synergy with exogenous ABA on Em-GUS expression [2] | Transactivation of Em-GUS expression by overexpressed effector ([2]; maize mesophyll protoplasts) | also measured |
| --- | --- | --- | --- | --- | --- | --- |
| ABI5: Arabidopsis basic leucine zipper (bZIP) domain transcription factor, At2g36270, SEQ ID NO 5 and 6 | acted in synergy with ABA | transactivated the Em promoter | can synergize with co-transformed VP1 | synergize with exogenous ABA | sufficient for transactivation of the Em promoter; also recorded: sufficient for specific Em-GUS transactivation; also recorded: sufficient to transactivate Em-GUS expression | – |
| B1 | – | – | – | – | sufficient for specific Em-GUS transactivation | Effect of ABA on synergism with VP1 [2]: enhanced by ABA; Synergy with ABF3 on Em-GUS expression [2]: synergizes; also recorded: interacts synergistically; Synergy with ABI5 on Em-GUS expression [2]: synergizes; also recorded: interacts synergistically; Synergy with VP1 on Em-GUS expression [2]: act synergistically to activate Em-GUS expression; also recorded: interacts synergistically; Effect of co-transformed ABA-INSENSITIVE-1 dominant negative allele on transactivation ([2]; maize mesophyll protoplasts, data not shown): antagonized |
| B2 | – | – | no functional interactions with VP1 and not | synergize with exogenous ABA | sufficient to transactivate Em-GUS expression | – |
| B3 | acted in synergy with ABA | transactivated the Em promoter | – | – | – | – |
| B4 | – | – | – | – | sufficient to transactivate Em-GUS expression | Synergy with co-transformed VP1 on Em-GUS expression ([2]; maize mesophyll protoplasts, co-transformed with VP1): some antagonism of ABA inducible Em-GUS expression and not; Synergy with exogenous ABA on Em-GUS expression ([2]; maize mesophyll protoplasts, exogenous ABA): synergize with exogenous ABA |
